Results from US20050106100.
Where “and” joins values, the source holds several entries; their conditions need not be identical. Equal values may be shown once.

T1: Ac-PRR˜Cha-TA-Ambh-Hynic
T1 chain: PRRXTA

T2: Ac-Hpro-Cit-G˜Hphe-TA-Ahxh-Hynic (not fully specified)
T2 chain: XXGXTA

T3: Ac-PLG˜Hphe-RLT-Ahxh-Hynic
T3 chain: PLGXRLT

T4: Ac-PL-NLys˜LL-Ahxh-Ac[C14] (not fully specified)
T4 chain: PLXLL

T5: Ac-PLG˜LYA-Ahxh-Hynic (not fully specified)
T5 chain: PLGLYA

T6: Ac-P-NMeArg-R˜LTA-Ambh-Hynic (not fully specified)
T6 chain: PRRLTA

T7: Ac-PLG˜Hphe-R-Ahxh-Ac[C14] (not fully specified)
T7 chain: PLGXR

T8: Ac-POG˜LLA-Ahxh-Hynic
T8 chain: PXGLLA

T9: Ac-PLG˜LHL-Ahxh-Hynic
T9 chain: PLGLHL

T10: Ac-P-Cit-G˜Hphe-LA-Ahxh-Ac[C14] (not fully specified)
T10 chain: PXGXLA

T11: Ac-Oic-LG˜LL-Ahxh-Ac[C14] (not fully specified)
T11 chain: XLGLL

T12: Ac-P-Cit-Hse˜Hphe-SA-Ahxh-Hynic (not fully specified)
T12 chain: PXXXSA

T13: Ac-POG˜Hphe-L-Nle-Ahxh-Hynic
T13 chain: PXGXLX

T14: Hynic-Ahx-PLG˜Hphe-OLEE-OH
T14 chain: XPLGXXLEE

T15: NLys-NLys-PLG˜Hphe-YL-Ahxh-Hynic
T15 chain: XXPLGXYL

T16: Ac-PL-NLys-LL-dLeu-Ahxh-Ac[C14]
T16 chain: PLXLLL

T17: Ac-P-Cit-G-Hphe-LA-Hynic
T17 chain: PXGXLA

T18: Ac-PLG˜Ahp-YL-Ahxh-Ac[C14] (not fully specified)
T18 chain: PLGXYL

T19: Ac-P-Cit-G˜Hphe-OL-Ahxh-Ac[C14] (not fully specified)
T19 chain: PXGXXL

T20: Ac-P-Hcit-G˜Hphe-SA-Ahxh-Hynic (not fully specified)
T20 chain: PXGXSA

T21: Ac-P-Cit-G˜Hphe-LA-Ahxh-Hynic (not fully specified)
T21 chain: PXGXLA

T22: H-DArg-P-Cit-G˜cLeu-LA-Ahxh-Hynic (not fully specified)
T22 chain: RPXGXLA

T23: NLys-PLG˜Hphe-YL-Ambh-Hynic
T23 chain: XPLGXYL

T24: Ac-P-NLys-R˜LTA-Ahxh-Hynic (not fully specified)
T24 chain: PXRLTA

T25: Ac-PLG˜LYL-Ahxh-Hynic (not fully specified)
T25 chain: PLGLYL

T26: Ac-PLG˜Hphe-KL-Ahxh-Hynic
T26 chain: PLGXKL

T27: Ac-PL-NLys˜LL-Ambh-Ac[C14] (not fully specified)
T27 chain: PLXLL

T28: Ac-NGlu-PLG˜Hphe-YL-Ambh-Hynic (not fully specified)
T28 chain: XPLGXYL

B1: MMP-2 (protein)
chain: APSPIIKFPGDVAPKTDKELAVQYLNTFYGCPKESCNLFVLKDTLKKMQKFFGLPQTGDLDQNTIETMRKPRCGNPDVANYNFFPRKPKWDKNQITYRIIGYTPDLDPETVDDAFARAFQVWSDVTPLRFSRIHDGEADIMINFGRWEHGDGYPFDGKDGLLAHAFAPGTGVGGDSHFDDDELWTLGEGQVVRVKYGNADGEYCKFPFLFNGKEYNSCTDTGRSDGFLWCSTTYNFEKDGKYGFCPHEALFTMGGNAEGQPCKFPFRFQGTSYDSCTTEGRTDGYRWCGTTEDYDRDKKYGFCPETAMSTVGGNSEGAPCVFPFTFLGNKYESCTSAGRSDGKMWCATTANYDDDRKWGFCPDQGYSLFLVAAHEFGHAMGLEHSQDPGALMAPIYTYTKNFRLSQDDIKGIQELYGASPDIDLGTGPTPTLGPVTPEICKQDIVFDGIAQIRGEIFFFKDRFIWRTVTPRDKPMGPLLVATFWPELPEKIDAVYEAPQEEKAVFFAGNEYWIYSASTLERGYPKPLTSLGLPPDVQRVDAAFNWSKNKKTYIFAGDKFWRYNEVKKKMDPGFPKLIADAWNAIPDNLDAVVDLQGGGHSYFFKGAYYLKLENQSLKSVKFGSIKSDWLGC
B2: human MMP-9 (protein)
chain: MRTPRCGVPDLGRFQTFEGDLKWHHHNITYWIQNYSEDLPRAVIDDAFARAFALWSAVTPLTFTRVYSRDADIVIQFGVAEHGDGYPFDGKDGLLAHAFPPGPGIQGDAHFDDDELWSLGKGVVVPTRFGNADGAACHFPFIFEGRSYSACTTDGRSDGLPWCSTTANYDTDDRFGFCPSERLYTQDGNADGKPCQFPFIFQGQSYSACTTDGRSDGYRWCATTANYDRDKLFGFCPTRADSTVMGGNSAGELCVFPFTFLGKEYSTCTSEGRGDGRLWCATTSNFDSDKKWGFCPDQGYSLFLVAAHEFGHALGLDHSSVPEALMYPMYRFTEGPPLHKDDVNGIRHLYGPRPEPEPRPPTTTTPQPTAPPTVCPTGPPTVHPSERPTAGPTGPPSAGPTGPPTAGPSTATTVPLSPVDDACNVNIFDAIAEIGNQLYLFKDGKYWRFSEGRGSRPQGPFLIADKWPALPRKLDSVFEERLSKKLFFFSGRQVWVYTGASVLGPRRLDKLGLGADVAQVTGALRSGRGKMLLFSGRRLWRFDVKAQMVDPRSASEVDRMFPGVPLDTHDVFQYREKAYFCQDRFYWRVSSRSELNQVDQVGYVTYDILQCPED

Columns and labels:
[1] = target: T1, Ac-PRR˜Cha-TA-Ambh-Hynic
[2] = target: T2, Ac-Hpro-Cit-G˜Hphe-TA-Ahxh-Hynic
[3] = target: T3, Ac-PLG˜Hphe-RLT-Ahxh-Hynic
[4] = target: T4, Ac-PL-NLys˜LL-Ahxh-Ac[C14]
[5] = target: T5, Ac-PLG˜LYA-Ahxh-Hynic
[6] = target: T6, Ac-P-NMeArg-R˜LTA-Ambh-Hynic
[7] = target: T7, Ac-PLG˜Hphe-R-Ahxh-Ac[C14]
[8] = target: T8, Ac-POG˜LLA-Ahxh-Hynic
[9] = target: T9, Ac-PLG˜LHL-Ahxh-Hynic
[10] = target: T10, Ac-P-Cit-G˜Hphe-LA-Ahxh-Ac[C14]
[11] = target: T11, Ac-Oic-LG˜LL-Ahxh-Ac[C14]
[12] = target: T12, Ac-P-Cit-Hse˜Hphe-SA-Ahxh-Hynic
[13] = target: T13, Ac-POG˜Hphe-L-Nle-Ahxh-Hynic
[14] = target: T14, Hynic-Ahx-PLG˜Hphe-OLEE-OH
[15] = target: T15, NLys-NLys-PLG˜Hphe-YL-Ahxh-Hynic
[16] = target: T16, Ac-PL-NLys-LL-dLeu-Ahxh-Ac[C14]
[17] = target: T17, Ac-P-Cit-G-Hphe-LA-Hynic
[18] = target: T18, Ac-PLG˜Ahp-YL-Ahxh-Ac[C14]
[19] = target: T19, Ac-P-Cit-G˜Hphe-OL-Ahxh-Ac[C14]
[20] = target: T20, Ac-P-Hcit-G˜Hphe-SA-Ahxh-Hynic
[21] = target: T21, Ac-P-Cit-G˜Hphe-LA-Ahxh-Hynic
[22] = target: T22, H-DArg-P-Cit-G˜cLeu-LA-Ahxh-Hynic
[23] = target: T23, NLys-PLG˜Hphe-YL-Ambh-Hynic
[24] = target: T24, Ac-P-NLys-R˜LTA-Ahxh-Hynic
[25] = target: T25, Ac-PLG˜LYL-Ahxh-Hynic
[26] = target: T26, Ac-PLG˜Hphe-KL-Ahxh-Hynic
[27] = target: T27, Ac-PL-NLys˜LL-Ambh-Ac[C14]
[28] = target: T28, Ac-NGlu-PLG˜Hphe-YL-Ambh-Hynic

Protein | Kcat/Km [1] [M⁻¹ s⁻¹] | Kcat/Km [2] [M⁻¹ s⁻¹] | Kcat/Km [3] [M⁻¹ s⁻¹] | Kcat/Km [4] [M⁻¹ s⁻¹] | Kcat/Km [5] [M⁻¹ s⁻¹] | Kcat/Km [6] [M⁻¹ s⁻¹] | Kcat/Km [7] [M⁻¹ s⁻¹] | Kcat/Km [8] [M⁻¹ s⁻¹] | Kcat/Km [9] [M⁻¹ s⁻¹] | Kcat/Km [10] [M⁻¹ s⁻¹] | Kcat/Km [11] [M⁻¹ s⁻¹] | Kcat/Km [12] [M⁻¹ s⁻¹] | Kcat/Km [13] [M⁻¹ s⁻¹] | Kcat/Km [14] | Kcat/Km [15] [M⁻¹ s⁻¹] | Kcat/Km [16] [M⁻¹ s⁻¹] | Kcat/Km [17] [M⁻¹ s⁻¹] | Kcat/Km [18] [M⁻¹ s⁻¹] | Kcat/Km [19] [M⁻¹ s⁻¹] | Kcat/Km [20] [M⁻¹ s⁻¹] | also measured
B1 | 0 | 99600 | 119000 | 180000 | 404000 | 879 | > 500000 | > 500000 | 73700 | > 750000 | 0 | 91400 | 401000 | 83900 M⁻¹ s⁻¹ and 42500 M⁻¹ s⁻¹ | 26300 | 0 | > 250000 | 38700 | 42500 | 293000 | Kcat/Km [21]: 827000 M⁻¹ s⁻¹; Kcat/Km [22]: 77 M⁻¹ s⁻¹; Kcat/Km [23]: 121000 M⁻¹ s⁻¹; Kcat/Km [24]: 0 M⁻¹ s⁻¹; Kcat/Km [25]: 65300 M⁻¹ s⁻¹; Kcat/Km [26]: 78900 M⁻¹ s⁻¹; Kcat/Km [27]: 68600 M⁻¹ s⁻¹
B2 | 1580 | 160000 | 103000 | 195000 | 512000 | 792 | > 500000 | 187000 | 156000 | 652000 | 0 | 38300 | 52000 | 2980 M⁻¹ s⁻¹ and 1670 M⁻¹ s⁻¹ | 33800 | 0 | > 250000 | 60400 | 28600 | 396000 | Kcat/Km [21]: 584000 M⁻¹ s⁻¹; Kcat/Km [22]: 0 M⁻¹ s⁻¹; Kcat/Km [23]: 264000 M⁻¹ s⁻¹; Kcat/Km [24]: 0 M⁻¹ s⁻¹; Kcat/Km [25]: 95000 M⁻¹ s⁻¹; Kcat/Km [28]: > 100000 M⁻¹ s⁻¹; Kcat/Km [26]: 93400 M⁻¹ s⁻¹; Kcat/Km [27]: 88000 M⁻¹ s⁻¹
